Ends that are not written are not given here.
Columns and labels:
human activated Factor X = human activated Factor X (human, UniProt P00742 41-179; P00742 235-488); test: cell-based or functional assay
[1] = target: T1, human plasma-derived Factor X zymogen (human, UniProt P00742 41-179; P00742 183-488); test: cell-based or functional assay
[2] = target: T1, human plasma-derived Factor X zymogen; test: apparent KD fitted from FXa generation assay
Description: The ability of the monovalent anti-FX Nanobody® (Nb) to promote FIXa-mediated FX-activation was determined in the presence of a procoagulant phospholipid membrane according to the principles described by Scheiflinger et al. (2008) J Thromb Haemost, 6:315-322. A Fab of mAb 13F62 (IgG1 isotype, variable sequences identified by SEQ ID NO:6 and 7), also found to bind the activation peptide, were included for comparison. Moreover, anti-FX antibodies as disclosed in U.S. Pat. No. 9,334,331 (J327 and L404-k in said publication), corresponding to the anti-FX arm of ACE910); and more recently in WO2018/021450 (J327 D31H and JYL280 in said publication) and WO2018/098363 (BIIB-12-917 represented by SEQ ID NO:427 and 615 in said publication) are stated to be suitable for use as part of anti-FIX/anti-FX bispecific FVIII mimetic compounds were, furthermore, included for comparison.
Each compound was tested individually in a concentration range from 0-1000 nM, 0-2000 nM, 0-4000 nM or 0-8000 nM by pre-incubation with 1-1.5 nM human plasma-derived FIXa (Haematologic Technologies Inc, USA) and 500 μM 25:75 phosphatidyl serine:phosphatidyl choline phospholipid vesicles (Haematologic Technologies Inc, USA) in assay buffer (50 mM HEPES, 100 mM NaCl, 5 mM CaCl₂, 0.1% (w/v) PEG8000, 1 mg/mL bovine serum albumin, pH 7.3) for 10 minutes. The reaction was initiated by addition of human plasma-derived FX (Haematologic Technologies Inc, USA) to a final concentration of 100 nM and a reaction volume of 50 μL. Following 20 minutes activation at room temperature while agitated (1000 RPM), the reaction was quenched by addition of 25 μL quench buffer (50 mM HEPES, 100 mM NaCl, 60 mM EDTA, 0.1% (w/v) PEG8000, 1 mg/mL bovine serum albumin, pH 7.3). The amount of FXa generated was determined by addition of 25 μL 2 mM S-2765 chromogenic substrate for FXa (Chromogenix, Sweden) and chromogenic substrate conversion was followed by measuring absorbance at 405 nm for 10 minutes in a microplate reader. The observed change in 405 nm absorbance (ΔAbs405/min) was fitted to the quadratic binding equation (eq. 1) to obtain the peak stimulatory activity and EC50.

[3] = target: T2, FX activation peptide 12-mer ADLDPTENPFDL (human); test: peptide ELISA
T2 peptide: ADLDPTENPFDL-biotin
Description: (§1) The peptides were C-terminally conjugated to biotin and 50 μL of 1 μg/mL peptide solution was used for immobilization in discrete wells of the microtiter plate which was pre-coated with 1 μg/mL streptavidin. Each well was washed with washing buffer (10 mM Tris, 150 mM NaCl, 2.5 mM CaCl₂, 0.05% Tween 20, pH 8.60) followed by addition of 50 μL of 2 μg/mL FLAG-tagged anti-FX Nanobody® or IgG antibody to be tested. After 1 hour non-bound Nanobody®/antibody was washed off using washing buffer.
(§2) Bound anti-FX activation peptide ligand was detected by first binding a HRP-labelled secondary antibody (for FLAG-tagged Nanobodies: Anti-FLAG mAb M2-Peroxidase (HRP) (Sigma Aldrich, US), for antibody: Fcγ Fragment Specific Peroxidase AffiniPure F(ab′)₂ Fragment Goat Anti-Human IgG (Jackson ImmunoResearch Laboratories, Inc., US), or Peroxidase AffiniPure Goat Anti-Mouse IgG (Jackson ImmunoResearch Laboratories, Inc., US)) for 1 hour, and then adding 100 μL TMB-1 ELISA substrate (Kem-En-Tec Diagnostics, Denmark).

[4] = target: T3, FX activation peptide 12-mer TQPERGDNNLTR (human); test: peptide ELISA
T3 peptide: TQPERGDNNLTR-biotin
Description: as §1, §2

[5] = target: T4, FX activation peptide 12-mer SSSGEAPDSITW (human); test: peptide ELISA
T4 peptide: SSSGEAPDSITW-biotin
Description: as §1, §2

[6] = target: T5, FX activation peptide 12-mer LDFNQTQPERGD (human); test: peptide ELISA
T5 peptide: LDFNQTQPERGD-biotin
Description: as §1, §2

[7] = target: T6, FX activation peptide 12-mer QATSSSGEAPDS (human); test: peptide ELISA
T6 peptide: QATSSSGEAPDS-biotin
Description: as §1, §2

[8] = target: T7, FX activation peptide 12-mer QTQPERGDNNLT (human); test: peptide ELISA
T7 peptide: QTQPERGDNNLT-biotin
Description: as §1, §2

[9] = target: T8, FX activation peptide 12-mer AADLDPTENPFD (human); test: peptide ELISA
T8 peptide: AADLDPTENPFD-biotin
Description: as §1, §2

[10] = target: T9, FX activation peptide 12-mer KPYDAADLDPTE (human); test: peptide ELISA
T9 peptide: KPYDAADLDPTE-biotin
Description: as §1, §2

[11] = target: T10, FX activation peptide 12-mer AQATSSSGEAPD (human); test: peptide ELISA
T10 peptide: AQATSSSGEAPD-biotin
Description: as §1, §2

[12] = target: T11, FX activation peptide 12-mer WKPYDAADLDPT (human); test: peptide ELISA
T11 peptide: WKPYDAADLDPT-biotin
Description: as §1, §2

T1 sequence (P00742 41-179, chain 1 of 2): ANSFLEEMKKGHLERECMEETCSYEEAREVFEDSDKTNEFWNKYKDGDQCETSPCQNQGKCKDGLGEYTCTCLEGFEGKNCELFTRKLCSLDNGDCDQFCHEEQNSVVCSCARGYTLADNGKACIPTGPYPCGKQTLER
T1 sequence (P00742 183-488, chain 2 of 2): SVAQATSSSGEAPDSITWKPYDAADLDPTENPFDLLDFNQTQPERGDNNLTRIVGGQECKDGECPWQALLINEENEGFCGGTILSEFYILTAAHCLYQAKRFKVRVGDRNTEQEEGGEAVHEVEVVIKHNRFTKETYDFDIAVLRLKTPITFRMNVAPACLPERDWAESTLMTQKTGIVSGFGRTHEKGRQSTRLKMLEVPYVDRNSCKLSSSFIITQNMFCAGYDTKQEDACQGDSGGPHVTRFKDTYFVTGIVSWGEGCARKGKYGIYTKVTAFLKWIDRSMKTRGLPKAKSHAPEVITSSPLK
Chain of human activated Factor X (P00742 41-179, chain 1 of 2): as the sequence (P00742 41-179, chain 1 of 2) above
Chain of human activated Factor X (P00742 235-488, chain 2 of 2): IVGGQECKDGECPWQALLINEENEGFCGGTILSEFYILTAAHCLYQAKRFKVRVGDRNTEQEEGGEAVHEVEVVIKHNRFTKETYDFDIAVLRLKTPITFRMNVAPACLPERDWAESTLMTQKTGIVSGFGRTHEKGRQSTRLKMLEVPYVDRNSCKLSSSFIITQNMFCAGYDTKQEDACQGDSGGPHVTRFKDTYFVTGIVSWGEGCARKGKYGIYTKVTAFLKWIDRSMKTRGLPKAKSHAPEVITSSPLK

B1: Nb 721E08 (VHH)
VHH: EVQLVESGGGVVQPGGSLRLSCAASGRTFSTYSMGWFRQAPGKEREFVAAITRRGSRTYYADSVKGRFTISRDNSKNTVYLQMNSLRPEDTALYYCAADRRPADSYLDYWGQGTLVTVSS
notes: monovalent Nanobody; not shown: C-terminal FLAG3 and HIS6 tag
Human activated Factor X
  FXa amidolytic activity (relative to free FXa, fold): 1.07 fold
[1]
  Increase in FX activation (fold): > 25 fold
[2]
  Kd: ~1700 nM
[3]
  ELISA signal relative to background: 2.34
[4]
  ELISA signal relative to background: 1.97
[5]
  ELISA signal relative to background: 1.99
[6]
  ELISA signal relative to background: 2.21
[7]
  ELISA signal relative to background: 1.97
[8]
  ELISA signal relative to background: 1.96
[9]
  ELISA signal relative to background: 2.22
[10]
  ELISA signal relative to background: 1.89
[11]
  ELISA signal relative to background: 1.92
[12]
  ELISA signal relative to background: 1.83
